Experimental findings from patent US20250034274A1 (Daiichi Sankyo, published 2025) are described below.

Test [1] concerns the target T1, biotinylated human TROP2 antigen (human, UniProt P09758 27-274, C-terminal Avi tag sequence biotinylated).
T1 construct: extracellular domain; Extracellular domain purified in house
T1 sequence (looked up): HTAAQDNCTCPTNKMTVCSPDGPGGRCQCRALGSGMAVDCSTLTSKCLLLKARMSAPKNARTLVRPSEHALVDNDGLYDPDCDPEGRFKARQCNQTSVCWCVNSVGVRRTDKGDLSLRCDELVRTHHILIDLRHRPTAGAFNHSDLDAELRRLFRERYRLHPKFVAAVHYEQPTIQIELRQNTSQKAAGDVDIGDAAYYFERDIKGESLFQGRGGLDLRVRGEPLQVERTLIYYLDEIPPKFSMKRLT
In words: ELISA, immobilised biotinylated human TROP2, anti-FLAG-HRP, chemiluminescence; without MMP1.
Protocol: (§1) NeutrAvidin (Thermo Fisher Scientific) diluted to 1 μg/ml with PBS was added at 50 μl/well to a 96-well Maxi-sorp plate (Black, Nunc) and immobilized at 4° C. overnight. The plate was washed with PBS containing 0.05% (w/v) Tween-20 (BioRad) (ELISA buffer) and then blocked with Blocker Casein (Thermo Fisher Scientific). The plate was washed with ELISA buffer, the biotinylated human TROP2 antigen (Accession Number: P09758; the extracellular domain was purified by the method known to a person skilled in the art and the C-terminal Avi tag sequence was then biotinylated) diluted to 1 μg/ml with PBS was added at 50 μl/well, and the resultant was then agitated for 30 minutes at room temperature. […] The plate was washed with ELISA buffer, the SuperSignal Pico ELISA chemiluminescent substrate (Thermo Fisher Scientific) was added, and chemiluminescence 10 minutes thereafter was then assayed using a plate reader.
(§2) The resultant was then added to the plate comprising the human TROP2 antigen immobilized thereon at 50 μl/well. The bound scFv was detected using the HRP-labeled anti-FLAG antibody (Sigma-Aldrich) diluted to 5,000-fold with ELISA buffer.

The target of test [2] is T1, biotinylated human TROP2 antigen. Nature of the test: ELISA, immobilised biotinylated human TROP2, anti-FLAG-HRP, chemiluminescence; scFv pre-incubated with MMP1.
Protocol: as §1, §2
The target is the same in test [3]. In words: ELISA, immobilised biotinylated human TROP2, anti-FLAG-HRP, chemiluminescence; without MMP1. The source holds these as a separate data set.
Protocol: as §1, §2
For test [4] the target is unchanged. In words: ELISA, immobilised biotinylated human TROP2, anti-FLAG-HRP, chemiluminescence; scFv pre-incubated with MMP1. The source holds these as a separate data set.
Protocol: as §1, §2
For test [5], the target named is T2, biotinylated human GPRC5D amino terminal peptide (human, K(Biotin) at the C-terminus; C-terminal amide (NH2)).
T2 construct: The last K carries the biotin and is an added residue as printed; also called human GPRC5D antigen; humanGPRC5D antigen
T2 peptide: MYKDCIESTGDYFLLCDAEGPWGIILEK
Nature of the test: ELISA, immobilised biotinylated human GPRC5D amino terminal peptide, anti-human IgG-HRP, chemiluminescence.
Protocol: NeutrAvidin (Thermo Fisher Scientific) diluted to 1 μg/ml with PBS was added at 50 μl/well to a 96-well Maxi-sorp plate (Black, Nunc) and immobilized at 4° C. overnight. The plate was washed with PBS (ELISA buffer) containing 0.05 (w/v) % Tween-20 (BioRad) and then blocked with Blocker Casein (Thermo Fisher Scientific). The plate was washed with ELISA buffer, the biotinylated human GPRC5D amino terminal peptide ([sequence]-K(Biotin)-NH₂ (Peptide Institute, Inc.)) diluted to 1 μg/ml with PBS was added at 50 μl/well, and the resultant was agitated for 30 minutes at room temperature. The plate was washed with ELISA buffer, the MMP-buffered antibody was added at 50 μl/well, and the resultant was then agitated for 30 minutes at room temperature. The plate was washed with ELISA buffer, 50 μl of the horseradish peroxidase (HRP)-labeled anti-human IgG antibody (Jackson Immuno Research Laboratories) diluted to 2,500-fold with ELISA buffer was added, and the resultant was then agitated for 30 minutes at room temperature. The plate was washed with ELISA buffer, the SuperSignal Pico ELISA chemiluminescent substrate (Thermo Fisher Scientific) was added, and chemiluminescence 10 minutes thereafter was then assayed using a plate reader.

The target of test [6] is T1, biotinylated human TROP2 antigen. In words: ELISA on human TROP2, scFv with or without MMP1 cleavage.
Protocol: as §2
Thereafter, the antibody with the concentration thereof being adjusted with ELISA buffer was added to the wells.
For test [7] the target is unchanged. Nature of the test: ELISA, immobilised biotinylated human TROP2, anti-FLAG-HRP, chemiluminescence; without MMP1. This is another data set of the same source.
Protocol: as §1, §2
Test [8] shares this target. Nature of the test: ELISA, immobilised biotinylated human TROP2, anti-FLAG-HRP, chemiluminescence; scFv pre-incubated with MMP1. The source holds these as a separate data set.
Protocol: as §1, §2
The target is the same in test [9]. The description is as above. The source holds these as a separate data set.
Protocol: as §1, §2
For test [10] the target is unchanged. Nature of the test: ELISA, immobilised biotinylated human TROP2, anti-human IgG-HRP, chemiluminescence.
Protocol: (§3) NeutrAvidin (Thermo Fisher Scientific) diluted to 1 μg/ml with PBS was added at 50 μl/well to a 96-well Maxi-sorp plate (Black, Nunc) and immobilized at 4° C. overnight. The plate was washed with PBS containing 0.05% (w/v) Tween-20 (BioRad) (ELISA buffer) and then blocked with Blocker Casein (Thermo Fisher Scientific). The plate was washed with ELISA buffer, the biotinylated human TROP2 antigen (Accession Number: P09758; the extracellular domain was purified by the method known to a person skilled in the art and the C-terminal Avi tag sequence was then biotinylated) diluted to 1 μg/ml with PBS was added at 50 μl/well, and the resultant was then agitated for 30 minutes at room temperature. […] The plate was washed with ELISA buffer, 50 μl of the horseradish peroxidase (HRP)-labeled anti-human IgG antibody (Jackson Immuno Research Laboratories) diluted to 2,500-fold with ELISA buffer was added, and the resultant was then agitated for 30 minutes at room temperature. The plate was washed with ELISA buffer, the SuperSignal Pico ELISA chemiluminescent substrate (Thermo Fisher Scientific) was added, and chemiluminescence 10 minutes thereafter was then assayed using a plate reader.
The target is the same in test [11]. Nature of the test: ELISA, immobilised biotinylated human TROP2, anti-human IgG-HRP, chemiluminescence; without MMP1.
Protocol: as §3
Test [12] has the same target. Nature of the test: ELISA, immobilised biotinylated human TROP2, anti-human IgG-HRP, chemiluminescence; antibody pre-incubated with MMP1.
Protocol: as §3
The target is the same in test [13]. In words: ELISA on human TROP2, antibody with or without uPA cleavage.
Protocol: as §3
Test [14] shares this target. In words: ELISA, immobilised biotinylated human TROP2, anti-human IgG-HRP, chemiluminescence; without uPA.
Protocol: as §3
The target is the same in test [15]. Nature of the test: ELISA, immobilised biotinylated human TROP2, anti-human IgG-HRP, chemiluminescence; antibody pre-incubated with uPA.
Protocol: as §3
Test [16] has the same target. In words: ELISA on human TROP2, antibody with or without MMP1 cleavage.
Protocol: as §3
Test [17] shares this target. Nature of the test: ELISA, immobilised biotinylated human TROP2, anti-human IgG-HRP, chemiluminescence; without MMP1. This is another data set of the same source.
Protocol: as §3
Test [18] shares this target. Nature of the test: ELISA, immobilised biotinylated human TROP2, anti-human IgG-HRP, chemiluminescence; antibody pre-incubated with MMP1. The source holds these as a separate data set.
Protocol: as §3

B1: HT1-11-scFv-LH (scFv)
scFv: ADVNSDIQMTQSPSSLSASVGDRVTITCKASQDVSTAVAWYQQKPGKAPKLLIYSASYRYTGVPSRFSGSGSGTDFTLTISSLQPEDFAVYYCQQHYITPLTFGQGTKLEIKRGGGGSGGGGSGGGGSQVQLVQSGAEVKKPGASVKVSCKASGYTFTTAGMQWVRQAPGQGLEWMGWINTHSGVPKYAEDFKGRVTISADTSTSTAYLQLSSLKSEDTAVYYCARSGFGSSYWYFDVWGQGTLVTVSSGAPSGDYKDDDDKGAAAHHHHHH
notes: No mimotope fused; expressed in E. coli, purified on Ni Sepharose; also called scFv-type anti-TROP2 antibody
Regarding B1, the “EC50 (read off the curve)” value in [1] and in test [2] was around 3 nM in each case.

B2: HT1-11-scFv-HL (scFv)
scFv: ADVNSQVQLVQSGAEVKKPGASVKVSCKASGYTFTTAGMQWVRQAPGQGLEWMGWINTHSGVPKYAEDFKGRVTISADTSTSTAYLQLSSLKSEDTAVYYCARSGFGSSYWYFDVWGQGTLVTVSSGGGGSGGGGSGGGGSDIQMTQSPSSLSASVGDRVTITCKASQDVSTAVAWYQQKPGKAPKLLIYSASYRYTGVPSRFSGSGSGTDFTLTISSLQPEDFAVYYCQQHYITPLTFGQGTKLEIKRGAPSGDYKDDDDKGAAAHHHHHH
notes: as for B1
For the molecule B2, the “EC50 (read off the curve)” value in test [3] is around 5 nM; in test [4], around 4 nM.

B3: anti-GPRC5D antibody C3022 (antibody, V domains shown)
VH: QVQLVQSGAEVKKPGASVKVSCKASGYTFTGYYMHWVRQAPGQGLEWMGRINPNSGGTNYAQKFQGRVTMTRDTSISTAYMELSGLRSDDTAVYYCASGSVRHPWGQGTLVTVSS
VL: QPVLTQPPSASGTPGQRVTISCSGSRSNIGGNIVSWYQQFPGTAPRLLTYADNQRPSGVPDRFSGSKSGTSASLAISGLQSEDEADYYCAAWDDSLNGVVFGGGTKLTVLG
notes: Known antibody of WO 2018/147245
In the case of B3, the “EC50 (read off the curve)” value in test [5] was around 0.3 nM.

B4: MHT1002 (scFv)
scFv: AMGYLALKHPWPGLAENSGSGGGGSVLVPMAMMASGGSDVNSDIQMTQSPSSLSASVGDRVTITCKASQDVSTAVAWYQQKPGKAPKLLIYSASYRYTGVPSRFSGSGSGTDFTLTISSLQPEDFAVYYCQQHYITPLTFGQGTKLEIKRGGGGSGGGGSGGGGSQVQLVQSGAEVKKPGASVKVSCKASGYTFTTAGMQWVRQAPGQGLEWMGWINTHSGVPKYAEDFKGRVTISADTSTSTAYLQLSSLKSEDTAVYYCARSGFGSSYWYFDVWGQGTLVTVSSGAPSGDYKDDDDKGAAAHHHHHH
notes: Mimotope peptide, MMP cleavable linker, HT1-11 scFv, FLAG tag, His tag; also called positive clone MHT1002
As to B4, in test [6], the “EC50 ratio of binding (under the condition without the addition of MMP1/under the condition with the addition of MMP1)” value is 4.3. Besides, the “EC50 (read off the curve)” value in test [7] was 10 to 20 nM; in test [8], around 3 nM.

B5: MHT1001 (scFv)
scFv: AMGYLALKHPWPGLAENSGSGGGGSVLVPMAMMASGGSDVNSQVQLVQSGAEVKKPGASVKVSCKASGYTFTTAGMQWVRQAPGQGLEWMGWINTHSGVPKYAEDFKGRVTISADTSTSTAYLQLSSLKSEDTAVYYCARSGFGSSYWYFDVWGQGTLVTVSSGGGGSGGGGSGGGGSDIQMTQSPSSLSASVGDRVTITCKASQDVSTAVAWYQQKPGKAPKLLIYSASYRYTGVPSRFSGSGSGTDFTLTISSLQPEDFAVYYCQQHYITPLTFGQGTKLEIKRGAPSGDYKDDDDKGAAAHHHHHH
notes: also called positive clone MHT1001
Take B5: the “EC50 ratio of binding (under the condition without the addition of MMP1/under the condition with the addition of MMP1)” value in test [6] stood at 7.9. Moreover, in [9], the “EC50 (read off the curve)” value was around 8 nM.

B6: anti-TROP2 antibody HT1-11 (antibody)
heavy: not shown
light: DIQMTQSPSSLSASVGDRVTITCKASQDVSTAVAWYQQKPGKAPKLLIYSASYRYTGVPSRFSGSGSGTDFTLTISSLQPEDFAVYYCQQHYITPLTFGQGTKLEIKRTVAAPSVFIFPPSDEQLKSGTASVVCLLNNFYPREAKVQWKVDNALQSGNSQESVTEQDSKDSTYSLSSTLTLSKADYEKHKVYACEVTHQGLSSPVTKSFNRGEC
notes: Known antibody of WO 2015/098099; Entries are called full-length
For B6, the “EC50 (read off the curve)” value in test [10] was around 0.6 nM; in test [11], around 0.5 nM; in test [12], around 0.5 nM.

B7: anti-TROP2 masked antibody MHT1009 (antibody)
heavy: not shown
light: DIQMTQSPSSLSASVGDRVTITCKASQDVSTAVAWYQQKPGKAPKLLIYSASYRYTGVPSRFSGSGSGTDFTLTISSLQPEDFAVYYCQQHYITPLTFGQGTKLEIKRTVAAPSVFIFPPSDEQLKSGTASVVCLLNNFYPREAKVQWKVDNALQSGNSQESVTEQDSKDSTYSLSSTLTLSKADYEKHKVYACEVTHQGLSSPVTKSFNRGEC
notes: IgG-type
Regarding B7, in [13], the “EC50 ratio of binding (under the condition without the addition of uPA/under the condition with the addition of uPA)” value stood at 83. The half-maximal effective concentration (EC50 (read off the curve)) was around 90 nM in test [14] and around 1 nM in test [15].

B8: anti-TROP2 masked antibody MHT1007 (antibody)
heavy: not shown
light: DIQMTQSPSSLSASVGDRVTITCKASQDVSTAVAWYQQKPGKAPKLLIYSASYRYTGVPSRFSGSGSGTDFTLTISSLQPEDFAVYYCQQHYITPLTFGQGTKLEIKRTVAAPSVFIFPPSDEQLKSGTASVVCLLNNFYPREAKVQWKVDNALQSGNSQESVTEQDSKDSTYSLSSTLTLSKADYEKHKVYACEVTHQGLSSPVTKSFNRGEC
notes: IgG-type; MHT1001 mimotope and MMP cleavable linker fused to the heavy chain
With B8, the “EC50 ratio of binding (under the condition without the addition of MMP1/under the condition with the addition of MMP1)” value in test [16] is 104. In addition, the entries for the concentration for a half-maximal effect (EC50 (read off the curve)) in test [17] and in [18] were around 30 nM and around 0.3 nM, respectively.
